Test results reported in paper doi:10.1101/2022.04.25.489454.
Where two headings read alike, the source gives them in different places. Values belong to the molecule of their own block, whether it stands above or below them.

Columns and labels:
[1] = biological target: stabilized microtubules polymerised from cow brain tubulin (cow (purified from cow brains)) (UniProt Q6B856); assay: TIRF microscopy of GFP-protein decoration of immobilized microtubules
[2] = biological target: full length human GFP-CLASP2α (human) (UniProt O75122); assay: optical trap rupture force
[3] = biological target: full length human GFP-CLASP2α (human) (UniProt O75122); assay: TIRF microscopy of microtubules tethered to protein clusters on DNA origami
[4] = biological target: stabilized microtubules polymerised from cow brain tubulin (cow (purified from cow brains)) (UniProt Q6B856); assay: TIRF microscopy of GFP-protein decoration of immobilized microtubules; remark: listed apart in the source

- Kd [1]: 0.5 nM
- end brightness [1]: 594 a.u.
Molecule: full length human GFP-CLASP2α (from UniProt O75122-3 1-1515) (natural protein)

- pulling force withstood without rupture (13 of 39 microtubules) [2]: > 15.2 pN
- time for which half of the microtubules stay attached by their end [3]: 4 h
Molecule: stabilized microtubules polymerised from cow brain tubulin (from UniProt Q6B856 1-445) (complex)
- pulling force at 50% survival of the attachment [2]: 14 pN

- end brightness [4]: 757 a.u.
B1: GFP-L-TOG2-S (domain or fragment)
chain: KVPAPKTSGNPANSARKPGSAGGPKVGAGASKEGGAGAVDEDDFIKAFTDVPSIQIYSSRELEETLNKIREILSDDKHDWDQRANALKKIRSLLVAGAAQYDCFFQHLRLLDGALKLSAKDLRSQVVREACITVAHLSTVLGNKFDHGAEAIVPTLFNLVPNSAKVMATSGCAAIRFIIRHTHVPRLIPLITSNCTSKSVPVRRRSFEFLDLLLQEWQTHSLERHAAVLVETIKKGIHDADAEARVEARKTYMGLRNHFPGEAETLYNSLEPSYQKSLQTYLKSSGSVASLPQSDRSSSSSQESLNRPFSSKWSTANPSTVAGRVSAGSSKASSLPGSLQRSRSDIDVNAAAGAKAHHAAGQSVRSGRLGAGALNAGSYASLEDTSDKLDGTASEDGRVRAKLSAPLAGMGNAKADSRGRSRTKMVSQSQPGSRSGSPGRVLTTTALSTVSSGVQRVLVNSASAQKRSKIPRSQGCSREASPSRLSVARSSRIPRPSVSQGCSREASRESSRDTSPVRSFQPLGPGYGISQSS
